The values below are quoted from earlier work in article PMC2726620 (Journal of medicinal chemistry, 2008).

In general, Ki refers to a measure of affinity in units of concentration, obtained from inhibition or displacement. For orientation: IC50 means the concentration that gives 50% inhibition.

Non-standard residues stand in square brackets, D forms with d. Residues, ends and D or L forms follow the SMILES beside them. No end group written: not given here. *: point of attachment. Fmoc = O=C(OCC1c2ccccc2-c2ccccc21)*; NMePhg = CN[C@H](C(=O)O)c1ccccc1; Cha = N[C@@H](CC1CCCCC1)C(=O)O

Data set [1] deals with mR1 dimer. As to conditions: read-out: Ki for mR1 dimer; from directed minilibrary screening studies.
Data set [2] concerns the target T1, ScRR (Saccharomyces cerevisiae, UniProt P21524).
T1 sequence (P21524 1-888): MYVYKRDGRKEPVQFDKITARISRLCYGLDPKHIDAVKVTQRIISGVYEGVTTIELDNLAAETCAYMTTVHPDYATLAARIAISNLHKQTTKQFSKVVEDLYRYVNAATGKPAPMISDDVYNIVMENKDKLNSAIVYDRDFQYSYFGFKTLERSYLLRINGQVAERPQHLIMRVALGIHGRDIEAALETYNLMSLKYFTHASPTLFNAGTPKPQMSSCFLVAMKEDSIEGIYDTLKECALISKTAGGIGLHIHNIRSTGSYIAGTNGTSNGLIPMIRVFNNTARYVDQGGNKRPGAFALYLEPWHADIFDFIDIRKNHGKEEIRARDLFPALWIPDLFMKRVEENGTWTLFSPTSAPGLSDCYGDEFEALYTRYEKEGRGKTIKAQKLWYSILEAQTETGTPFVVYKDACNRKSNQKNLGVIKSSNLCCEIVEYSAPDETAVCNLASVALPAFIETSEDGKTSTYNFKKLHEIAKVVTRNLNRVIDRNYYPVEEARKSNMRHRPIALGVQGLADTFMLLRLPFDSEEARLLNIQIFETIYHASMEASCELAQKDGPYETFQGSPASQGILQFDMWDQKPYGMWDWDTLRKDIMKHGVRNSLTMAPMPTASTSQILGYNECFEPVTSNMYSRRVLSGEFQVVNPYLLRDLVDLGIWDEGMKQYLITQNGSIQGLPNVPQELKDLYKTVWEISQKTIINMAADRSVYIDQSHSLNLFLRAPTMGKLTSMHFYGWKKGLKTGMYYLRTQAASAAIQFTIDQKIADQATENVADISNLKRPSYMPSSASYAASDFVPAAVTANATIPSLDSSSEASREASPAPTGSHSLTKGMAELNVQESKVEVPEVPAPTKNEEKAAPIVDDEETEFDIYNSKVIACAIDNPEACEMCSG
The settings on record: read-out: IC50, ScRR; footnote *: IC50 values were reported in [30].

Data set [3] concerns the target EcR2 20-mer peptide C-terminal 20-mer (Escherichia coli) (UniProt P69924).
For data set [4], the target named is EcR2 octapeptide C-terminal octapeptide (Escherichia coli) (UniProt P69924).
Sequence of EcR2 octapeptide C-terminal octapeptide (Escherichia coli) (P69924 whole entry, looked up): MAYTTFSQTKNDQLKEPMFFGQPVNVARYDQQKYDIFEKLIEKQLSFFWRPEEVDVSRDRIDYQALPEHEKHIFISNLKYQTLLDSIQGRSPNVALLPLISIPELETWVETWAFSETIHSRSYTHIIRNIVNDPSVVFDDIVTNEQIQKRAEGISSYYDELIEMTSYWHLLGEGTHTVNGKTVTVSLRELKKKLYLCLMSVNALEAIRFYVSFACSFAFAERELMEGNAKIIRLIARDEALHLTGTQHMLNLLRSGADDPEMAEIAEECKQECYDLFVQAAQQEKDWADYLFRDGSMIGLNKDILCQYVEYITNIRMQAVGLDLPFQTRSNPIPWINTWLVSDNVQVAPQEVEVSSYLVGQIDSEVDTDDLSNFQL

Sequence of EcR2 20-mer peptide C-terminal 20-mer (Escherichia coli) (P69924 357-376): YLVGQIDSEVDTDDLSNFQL

Take `CC(C)C[C@H](NC(=O)[C@H](c1ccccc1)N(C)C(=O)OCC1c2ccccc2-c2ccccc21)C(=O)N[C@@H](CC(=O)O)C(=O)N[C@@H](CC1CCCCC1)C(=O)N[C@@H](CC(=O)O)C(=O)N[C@@H](Cc1ccccc1)C(=O)O` [P6, ^1Fmoc(Me)PhgLDChaDF^7] (Fmoc-[NMePhg]LD[Cha]DF-OH; C-terminus assumed): the Ki in data set [1] was 0.31 µM.

Regarding “^2NFDDDF^7 (not fully specified; printed as 2NFDDDF7) [ScR4]”, in data set [2], the 50% inhibitory concentration (IC50) is 30 µM.

With “^1FTFNEDF^7 (not fully specified; printed as 1FTFNEDF7) [ScR2]”, in data set [2], the IC50 is 44 µM.

Take “ribonucleotide reductase R1 (EcR1) (from UniProt P00452)”: the Ki was 20 µM in data set [3] and 370 µM in data set [4].
